According to patent US20220332804A1 (CSL INNOVATION, published 2022):

T1: human C2 N471A (human, UniProt P06681 21-752)
T1 sequence: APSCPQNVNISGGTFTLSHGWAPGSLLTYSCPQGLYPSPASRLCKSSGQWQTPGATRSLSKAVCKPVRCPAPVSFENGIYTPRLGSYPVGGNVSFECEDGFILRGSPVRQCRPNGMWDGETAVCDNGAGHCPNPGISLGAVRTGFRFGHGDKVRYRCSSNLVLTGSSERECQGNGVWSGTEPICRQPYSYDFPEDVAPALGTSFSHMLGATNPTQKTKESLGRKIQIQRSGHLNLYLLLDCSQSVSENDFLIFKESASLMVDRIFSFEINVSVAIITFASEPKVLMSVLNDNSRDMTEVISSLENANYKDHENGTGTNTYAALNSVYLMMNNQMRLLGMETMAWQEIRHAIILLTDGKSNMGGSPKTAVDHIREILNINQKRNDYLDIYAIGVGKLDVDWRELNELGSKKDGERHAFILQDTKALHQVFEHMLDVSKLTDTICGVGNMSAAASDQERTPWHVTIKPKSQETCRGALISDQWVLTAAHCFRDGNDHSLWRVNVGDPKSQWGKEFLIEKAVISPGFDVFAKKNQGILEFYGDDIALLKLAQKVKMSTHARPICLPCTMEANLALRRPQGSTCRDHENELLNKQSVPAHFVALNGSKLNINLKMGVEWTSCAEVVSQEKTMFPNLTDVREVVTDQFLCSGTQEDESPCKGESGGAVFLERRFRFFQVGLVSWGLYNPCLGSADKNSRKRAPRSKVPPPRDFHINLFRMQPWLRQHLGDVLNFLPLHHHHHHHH

T2: human C2 E433A (human, UniProt P06681 21-752)
T2 sequence: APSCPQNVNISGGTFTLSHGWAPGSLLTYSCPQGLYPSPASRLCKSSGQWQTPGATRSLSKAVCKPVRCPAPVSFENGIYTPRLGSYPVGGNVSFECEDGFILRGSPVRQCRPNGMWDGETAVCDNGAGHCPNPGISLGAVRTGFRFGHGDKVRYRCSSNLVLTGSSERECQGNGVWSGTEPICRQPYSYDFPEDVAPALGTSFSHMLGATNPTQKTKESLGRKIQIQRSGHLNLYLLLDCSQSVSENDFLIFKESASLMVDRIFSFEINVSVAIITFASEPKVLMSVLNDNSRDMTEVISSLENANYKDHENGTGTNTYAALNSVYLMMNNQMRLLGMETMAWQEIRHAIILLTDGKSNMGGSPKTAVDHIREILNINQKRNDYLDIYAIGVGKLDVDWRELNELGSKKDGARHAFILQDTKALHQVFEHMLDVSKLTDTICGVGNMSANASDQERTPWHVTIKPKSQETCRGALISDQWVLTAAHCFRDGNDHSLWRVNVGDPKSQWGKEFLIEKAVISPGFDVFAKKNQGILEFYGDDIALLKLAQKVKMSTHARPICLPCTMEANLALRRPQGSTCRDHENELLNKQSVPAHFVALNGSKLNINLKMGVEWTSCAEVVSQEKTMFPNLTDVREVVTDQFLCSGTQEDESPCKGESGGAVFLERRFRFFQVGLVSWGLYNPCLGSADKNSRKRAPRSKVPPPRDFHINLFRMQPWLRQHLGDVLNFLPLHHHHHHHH

T3: human C2 H446A (human, UniProt P06681 21-752)
T3 sequence: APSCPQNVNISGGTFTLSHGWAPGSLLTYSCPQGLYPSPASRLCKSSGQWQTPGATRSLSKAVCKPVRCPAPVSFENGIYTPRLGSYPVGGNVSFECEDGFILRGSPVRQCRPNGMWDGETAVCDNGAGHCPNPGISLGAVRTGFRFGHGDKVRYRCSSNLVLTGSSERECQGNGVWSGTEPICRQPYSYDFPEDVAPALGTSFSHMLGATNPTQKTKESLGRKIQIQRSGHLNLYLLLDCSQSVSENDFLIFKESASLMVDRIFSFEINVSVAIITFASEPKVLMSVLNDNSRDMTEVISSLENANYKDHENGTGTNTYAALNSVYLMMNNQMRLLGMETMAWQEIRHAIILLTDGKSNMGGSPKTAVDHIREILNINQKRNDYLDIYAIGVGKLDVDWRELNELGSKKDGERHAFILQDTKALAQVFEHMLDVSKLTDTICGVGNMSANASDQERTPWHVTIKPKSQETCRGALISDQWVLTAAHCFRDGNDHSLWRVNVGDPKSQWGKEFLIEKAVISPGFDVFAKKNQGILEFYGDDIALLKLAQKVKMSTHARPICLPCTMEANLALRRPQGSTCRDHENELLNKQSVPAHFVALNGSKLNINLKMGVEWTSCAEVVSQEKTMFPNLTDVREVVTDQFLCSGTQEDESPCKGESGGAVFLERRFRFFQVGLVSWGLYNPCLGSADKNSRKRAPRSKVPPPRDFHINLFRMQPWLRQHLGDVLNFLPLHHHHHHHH

T4: human complement C2 (human, UniProt P06681 21-752)
T4 sequence: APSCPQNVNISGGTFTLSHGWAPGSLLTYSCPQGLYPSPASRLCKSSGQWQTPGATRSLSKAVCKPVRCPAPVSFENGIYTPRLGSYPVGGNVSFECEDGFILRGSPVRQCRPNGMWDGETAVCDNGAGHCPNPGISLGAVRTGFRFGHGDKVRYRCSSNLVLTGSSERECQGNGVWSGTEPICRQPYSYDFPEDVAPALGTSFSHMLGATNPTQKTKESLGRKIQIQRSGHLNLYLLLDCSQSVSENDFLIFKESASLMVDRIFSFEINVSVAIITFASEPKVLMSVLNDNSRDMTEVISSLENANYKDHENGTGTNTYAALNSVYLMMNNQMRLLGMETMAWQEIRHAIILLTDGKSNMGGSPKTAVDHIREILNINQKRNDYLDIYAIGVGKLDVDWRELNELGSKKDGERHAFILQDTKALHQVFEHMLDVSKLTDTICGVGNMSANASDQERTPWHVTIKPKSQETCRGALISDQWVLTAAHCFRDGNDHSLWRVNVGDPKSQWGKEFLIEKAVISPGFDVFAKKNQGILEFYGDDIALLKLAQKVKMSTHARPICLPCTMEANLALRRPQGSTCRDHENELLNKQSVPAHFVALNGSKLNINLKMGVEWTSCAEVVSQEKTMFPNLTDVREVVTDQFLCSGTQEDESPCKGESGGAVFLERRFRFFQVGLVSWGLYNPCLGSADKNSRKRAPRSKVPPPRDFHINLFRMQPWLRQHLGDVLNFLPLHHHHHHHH


Experiments:
human C2 N471A = molecular target: T1, human C2 N471A; experiment: SPR; KD relative to WT C2;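 also: biacore SPR at 37 °C, anti-C2 mAbs captured on an anti-human IgG chip, alanine or serine C2 surface mutants tested, KD from 1:1 fit compared with wild-type C2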
Method: (§1) Surface plasmon resonance (SPR, Biacore) was used for all binding affinity analyses. In brief, goat anti-human IgG was directly immobilised onto the carboxymethyl dextran surface of CM5 sensorchips to approximately 12,000 RU using standard NHS/EDC chemistry at pH 5. The immobilised antibody surface was pre-conditioned with ten injections of polyclonal human IgG (Privigen 60 s) prepared at 1 μg/mL. Ligands (anti-C2 mAbs) were captured at the beginning of each cycle as described below. An adjacent spot or flow cell in which only Polyclonal IgG was capture was used as a reference surface. The goat anti-human IgG Fc antibody surface was regenerate in 100 mM H3PO4, injected for 45 seconds at the end of each cycle. Experiments were performed at 37° C. and the flow rate of each experiment was kept constant at 30 μL/min.
(§2) Sensogram data was double-referenced against a reference anti-IgG surface (i.e. minus anti-C2 mAb) and blank buffer injections obtained within each experiment. The binding data was fit to 1:1 (kinetic or steady-state) model using local Rmax and null refraction index (RI=0) when appropriate. Buffers and solutions were filtered (0.22 μm) prior to use.
(§3) The C2 mutants were designed to test the importance of surface exposed residues for antibody binding. Residues located at either the N-terminal VWA domain or C-terminal protease domain of C were replaced by either alanine or serine and tested for binding against anti-C2 antibodies.

human C2 E433A = molecular target: T2, human C2 E433A; experiment: SPR; KD relative to WT C2;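 also: biacore SPR at 37 °C, anti-C2 mAbs captured on an anti-human IgG chip, alanine or serine C2 surface mutants tested, KD from 1:1 fit compared with wild-type C2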
Method: as §1, §2, §3

human C2 H446A = molecular target: T3, human C2 H446A; experiment: SPR; KD relative to WT C2;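 also: biacore SPR at 37 °C, anti-C2 mAbs captured on an anti-human IgG chip, alanine or serine C2 surface mutants tested, KD from 1:1 fit compared with wild-type C2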
Method: as §1, §2, §3

human complement C2 = molecular target: T4, human complement C2; experiment: cell-based or functional assay

Fold diff (human C2 N471A)	Fold diff (human C2 E433A)	Fold diff (human C2 H446A)	log IC50 for inhibition of C1s-mediated cleavage of C2 (C2a band on SDS-PAGE, C1s titrated) (human complement C2)	Binder
1 fold	1 fold	5 fold	–	RF16-214 (antibody, V domains shown) VH: EVQLLESGGGLVQPGGSLRLSCAASGFTFSWYQMMWVRQAPGKGLEWVSRIYPSGGGTAYADSVKGRFTISRDNSKNTLYLQMNSLRAEDTAVYYCARDAGYGDNWGQGTLVTVSS VL: QSALTQPPSVSVSPGQTASITCSGDKLGEKYASWYQQKAGQSPVMVIYQDRKRPSGIPERFSGSNSGNTATLTISGTQAMDEADYYCQAWDTRAVVFGGGTKLTVLG
–	–	–	50.3 nM	RF16-226 (antibody) heavy: not shown light: SYELTQPPSVSVSPGQTARITCSGDALTSKYVAWYQQKSGLAPLLVIYEDTRRPSGIPAKFSGSSSGSVATLTISGAHGDDEADYYCYSTDASGHQRVFGGGTKLTVLSQPKAAPSVTLFPPSSEELQANKATLVCLISDFYPGAVTVAWKADGSPVKAGVETTKPSKQSNNKYAASSYLSLTPEQWKSHRSYSCQVTHEGSTVEKTVAPTECS
